EP0927045B1 (The Burnham Institute, dated 1998)
Where no end group is shown, it is not given here.

Target: αvβ3 integrin expressed on blood vessels forming in the tumor
Test: cell-based or functional assay

B1: phage expressing the RGD-containing peptide CDCRGDCFC (SEQ ID NO: 1) (peptide)
chain: CDCRGDCFC
modifications: not fully specified (bridges); cysteine pairing not given here; also: peptide displayed on filamentous phage (fuse5), up to five copies
  phage concentrated in the breast tumor after iv injection (in vivo homing), RGD phage against unselected phage: 80 fold
